Results reported in US20250179183A1 (BIOMOLECULAR, published 2025).
Read-outs that look alike come from different tables or passages of the source.

Columns and labels:
cynomolgus monkey CD64 [1] = target: T1, cynomolgus monkey CD64 (cynomolgus monkey, UniProt A0A2K5U901 33-309)
cynomolgus monkey CD32b [2] = target: cynomolgus monkey CD32b (cynomolgus monkey)
cynomolgus monkey CD32a [3] = target: cynomolgus monkey CD32a (cynomolgus monkey)
cynomolgus monkey CD32b [4] = target: cynomolgus monkey CD32b (cynomolgus monkey); remark: listed apart in the source
cynomolgus monkey CD64 [5] = target: T1, cynomolgus monkey CD64; remark: listed apart in the source
cynomolgus monkey CD32a [6] = target: cynomolgus monkey CD32a (cynomolgus monkey); remark: listed apart in the source

T1 sequence (A0A2K5U901 entry or part of it limits assumed, form in doubt): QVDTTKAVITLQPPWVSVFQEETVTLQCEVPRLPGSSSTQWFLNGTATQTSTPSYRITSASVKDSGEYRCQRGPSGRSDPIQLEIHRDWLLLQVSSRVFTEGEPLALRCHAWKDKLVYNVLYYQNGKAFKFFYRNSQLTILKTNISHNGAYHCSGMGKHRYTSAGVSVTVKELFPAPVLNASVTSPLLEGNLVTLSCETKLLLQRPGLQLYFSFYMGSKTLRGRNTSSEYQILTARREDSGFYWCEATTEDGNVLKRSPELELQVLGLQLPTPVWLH

| Binder | Kd (cynomolgus monkey CD64 [1]) [nM] | Kd (cynomolgus monkey CD32b [2]) [nM] | Kd (cynomolgus monkey CD32a [3]) [nM] | Kd (cynomolgus monkey CD32b [4]) [nM] | Kd (cynomolgus monkey CD64 [5]) [nM] | Kd (cynomolgus monkey CD32a [6]) [nM] |
| --- | --- | --- | --- | --- | --- | --- |
| Rituximab (antibody) VH: not shown VL: QIVLSQSPAILSASPGEKVTMTCRASSSVSYIHWFQQKPGSSPKPWIYATSNLASGVPVRFSGSGSGTSYSLTISRVEAEDAATYYCQQWTSNPPTFGGGTKLEIKRTVAAPSVFIFPPSDEQLKSGTASVVCLLNNFYPREAKVQWKVDNALQSGNSQESVTEQDSKDSTYSLSSTLTLSKADYEKHKVYACEVTHQGLSSPVTKSFNRGEC | < 0.02 | – | – | – | – | – |
| HB2198 (bispecific antibody, human IgG1, kappa) heavy 1: QVQLVQSGGGVVQPGRSLRLSCAASGVSLPDYGVSWVRKAPGKGLEWVAVIWGSETTYYNSALKSRFTISRDNSKNTLYLQMSSLRAEDTAVYYCAKHYYYGGSFAMDYWGQGTLVTVSSASTKGPSVFPLAPSSKSTSGGTAALGCLVKDYFPEPVTVSWNSGALTSGVHTFPAVLQSSGLYSLESVVTVPSSSLGTQTYICNVNHKPSNTKVDKKVEPKSCTDWSPYADQSIKVRISLKSALGDKAYEWNDNEMYLFRSSVAYAMRQYFLKVKNQMILFGEEDVRVANLKPRISFNFFVTAPKNVSDIIPRTEVEKAIRMSRSRINDAFRLNDNSLEFLGIQPTLGPPNQPPVSTSTSPTRSMAPGAVHLPQPVSTRDKTHTCPPCPAPELLGGPDVFLFPPKPKDTLMISRTPEVTCVVVDVSHEDPEVKFNWYVDGVEVHNAKTKPREEQYNSTYRVVSVLTVLHQDWLNGKEYKCKVSNKALPAPEEKTISKAKGQPREPQVCTLPPSRDELTKNQVSLSCAVKGFYPSDIAVEWESNGQPENNYKTTPPVLDSDGSFFLVSKLTVDKSRWQQGNVFSCSVMHEALHNRFTQKSLSLSPG heavy 2: QIVLSQSPAILSASPGEKVTMTCRASSSVSYIHWFQKKPGSSPKPWIYATSNLASGVPVRFSGSGSGTSYSLTISRVEAEDAATYYCQQWTSNPPTFGGGTKVEIKSSASTKGPSVFPLAPSSKSTSGGTAALGCLVKDYFPEPVTVSWNSGALTSGVHTFPAVLQSSGLYSLKSVVTVPSSSLGTQTYICNVNHKPSNTKVDKKVEPKSCDKTHTCPPCPAPELLGGPDVFLFPPKPKDTLMISRTPEVTCVVVDVSHEDPEVKFNWYVDGVEVHNAKTKPREEQYNSTYRVVSVLTVLHQDWLNGKEYKCKVSNKALPAPEEKTISKAKGQPREPQVYTLPPCRDELTKNQVSLWCLVKGFYPSDIAVEWESNGQPENNYKTTPPVLDSDGSFFLYSKLTVDKSRWQQGNVFSCSVMHEALHNHYTQKSLSLSPG light 1: DIQMTQSPSSLSASVGDRVTITCRASQDISKYLNWYQEKPGKAIKLLIYHTSRLHSGVPSRFSGSGSGTDFTLTISSLQPEDFATYYCQQGATLPYTFGPGTKLEIKRTVAAPSVFIFPPSDEQLKSGTASVKCLLNNFYPREAKVQWKVDNALQSGNSQESVTEQDSKDSTYSLSSTLTLSKADYEKHKVYACEVTHQGLSSPVTKSFNRGEC light 2: QVQLQQPGAELVKPGASVKMSCKASGYTFTSYNMHWVKETPGRGLEWIGAIYPGNGDTSYNQKFKGKATLTADKSSSTAYMQLSSLTSEDSAVYYCARSTYYGGDWYFNVWGAGTLVTVSSASVAAPSVFIFPPSDEQLKSGTASVECLLNNFYPREAKVQWKVDNALQSGNSQESVTEQDSKDSTYSLSSTLTLSKADYEKHKVYACEVTHQGLSSPVTKSFNRGEC | < 0.02 | 218 | 305 | 3.4 | < 0.02 | 4 |
| Tafasitamab (antibody, human IgG1, kappa) heavy: EVQLVESGGGLVKPGGSLKLSCAASGYTFTSYVMHWVRQAPGKGLEWIGYINPYNDGTKYNEKFQGRVTISSDKSISTAYMELSSLRSEDTAMYYCARGTYYYGTRVFDYWGQGTLVTVSSASTKGPSVFPLAPSSKSTSGGTAALGCLVKDYFPEPVTVSWNSGALTSGVHTFPAVLQSSGLYSLSSVVTVPSSSLGTQTYICNVNHKPSNTKVDKKVEPKSCDKTHTCPPCPAPELLGGPDVFLFPPKPKDTLMISRTPEVTCVVVDVSHEDPEVQFNWYVDGVEVHNAKTKPREEQFNSTFRVVSVLTVVHQDWLNGKEYKCKVSNKALPAPEEKTISKTKGQPREPQVYTLPPSREEMTKNQVSLTCLVKGFYPSDIAVEWESNGQPENNYKTTPPMLDSDGSFFLYSKLTVDKSRWQQGNVFSCSVMHEALHNHYTQKSLSLSPG light: DIVMTQSPATLSLSPGERATLSCRSSKSLQNVNGNTYLYWFQQKPGQSPQLLIYRMSNLNSGVPDRFSGSGSGTEFTLTISSLEPEDFAVYYCMQHLEYPITFGAGTKLEIKRTVAAPSVFIFPPSDEQLKSGTASVVCLLNNFYPREAKVQWKVDNALQSGNSQESVTEQDSKDSTYSLSSTLTLSKADYEKHKVYACEVTHQGLSSPVTKSFNRGEC | < 0.02 | 53 | 76.2 | 152 | 1.8 | 181 |
